Targets include DLG4_2, P78352; FRMPD2_1, Q68DX3; IL16_1, Q14005; Inadl_3, Q8NI35; LAP2, Q96RT1; LIMK2, P53671; LNX1_3, Q8TBB1; NHERF4_2, Q86UT5; NHERF4_4, Q86UT5.
Holding throughout (assay): holdup assay
Holding throughout (design): key: below the threshold = too weak to quantify, mostly under pKd 3.1 to 4

The next test deals with T1, APBA1_2, Q02410.
T1 sequence (Q02410 742-832, limits assumed, looked up): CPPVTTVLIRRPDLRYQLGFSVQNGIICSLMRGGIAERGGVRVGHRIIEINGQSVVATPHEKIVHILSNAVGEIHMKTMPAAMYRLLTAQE

A further test deals with T2, APBA2_2, Q99767.
T2 sequence (Q99767 654-744, limits assumed, looked up): T1 sequence (Q02410 742-832, limits assumed, looked up) with R10K, R15K, P59A, H65Q, I66A, A70S, Y84F, A89G

The next test addresses T3, CARD11, Q9BXL7.
T3 sequence (Q9BXL7 662-765, limits assumed, looked up): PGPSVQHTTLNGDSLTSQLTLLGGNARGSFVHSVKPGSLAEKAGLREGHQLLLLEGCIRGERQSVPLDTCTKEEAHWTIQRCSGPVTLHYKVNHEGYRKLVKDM

The target in another test is T4, DFNB31_2, Q9P202.
T4 sequence (Q9P202 274-371, limits assumed, looked up): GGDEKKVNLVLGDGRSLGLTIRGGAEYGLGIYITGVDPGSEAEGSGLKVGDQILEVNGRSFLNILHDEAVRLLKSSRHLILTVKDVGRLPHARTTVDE

Another test deals with T5, FRMPD1, Q5SYB0.
T5 sequence (Q5SYB0 52-145, limits assumed, looked up): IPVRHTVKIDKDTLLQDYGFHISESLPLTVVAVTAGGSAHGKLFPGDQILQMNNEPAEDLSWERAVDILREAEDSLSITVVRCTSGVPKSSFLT

For the next test, the target named is T6, LNX2_3, Q8N448.
T6 sequence (Q8N448 463-564, limits assumed, looked up): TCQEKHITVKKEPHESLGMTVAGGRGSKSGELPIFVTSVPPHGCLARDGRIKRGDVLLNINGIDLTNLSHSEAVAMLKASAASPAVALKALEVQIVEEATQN

For a further test, the target named is T7, MPDZ_10, O75970.
T7 sequence (O75970 1624-1722, limits assumed, looked up): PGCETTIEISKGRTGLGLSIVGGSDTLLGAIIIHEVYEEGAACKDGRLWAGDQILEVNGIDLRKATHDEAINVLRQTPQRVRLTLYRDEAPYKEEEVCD

A further test concerns the target T8, MPP6, Q9NZW5.
T8 sequence (Q9NZW5 125-219, limits assumed, looked up): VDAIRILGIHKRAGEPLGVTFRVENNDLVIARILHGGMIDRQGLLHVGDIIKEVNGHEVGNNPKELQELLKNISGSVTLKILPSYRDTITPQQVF

In a further test the target is T9, MPP7, Q5T2T1.
T9 sequence (Q5T2T1 134-230, limits assumed, looked up): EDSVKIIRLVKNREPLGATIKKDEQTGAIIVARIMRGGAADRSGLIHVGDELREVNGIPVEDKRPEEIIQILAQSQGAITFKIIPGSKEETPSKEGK

For another test, the target named is T10, NHERF3_3, Q5T2W1.
T10 sequence (Q5T2W1 238-333, limits assumed, looked up): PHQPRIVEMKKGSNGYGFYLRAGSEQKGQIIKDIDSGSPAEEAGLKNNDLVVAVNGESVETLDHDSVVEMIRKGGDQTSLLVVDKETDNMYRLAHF

The target in another test is T11, NHERF3_4, Q5T2W1.
T11 sequence (Q5T2W1 373-468, limits assumed, looked up): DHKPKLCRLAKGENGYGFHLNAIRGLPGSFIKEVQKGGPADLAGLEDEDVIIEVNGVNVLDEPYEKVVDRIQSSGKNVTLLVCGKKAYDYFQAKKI

A further test concerns the target T12, PDZD2_2, O15018.
T12 sequence (O15018 329-429, limits assumed, looked up): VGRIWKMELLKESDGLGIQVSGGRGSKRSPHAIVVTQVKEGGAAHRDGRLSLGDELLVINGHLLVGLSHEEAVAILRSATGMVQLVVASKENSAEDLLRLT

The target of a further test is T13, SHANK1, Q9Y566.
T13 sequence (Q9Y566 658-767, limits assumed, looked up): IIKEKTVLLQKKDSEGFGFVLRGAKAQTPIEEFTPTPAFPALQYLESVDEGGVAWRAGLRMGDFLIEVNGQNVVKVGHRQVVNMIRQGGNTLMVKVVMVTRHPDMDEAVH

The target of a further test is T14, TX1BP3, O14907.
T14 sequence (O14907 10-122, limits assumed, looked up): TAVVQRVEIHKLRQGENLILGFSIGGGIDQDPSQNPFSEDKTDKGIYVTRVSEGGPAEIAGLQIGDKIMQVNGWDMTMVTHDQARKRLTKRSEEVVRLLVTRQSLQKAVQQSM

Setting [1] is: plain residues with an end cap or a label only (N-terminal biotin on a linker: ttds).
Where [2] appears, read: plain residues with an end cap or a label only (N-terminal biotin on a linker: ahx).
[3] abbreviates: plain residues with an end cap or a label only (N-terminal biotin on a linker: ado-ado).

Numbering of substitutions follows the chain as printed.

Sequence of IL16_1, Q14005 (Q14005 210-306): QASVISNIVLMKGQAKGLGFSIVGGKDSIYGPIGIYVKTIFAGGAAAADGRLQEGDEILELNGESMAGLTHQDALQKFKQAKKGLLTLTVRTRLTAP
Sequence of FRMPD2_1, Q68DX3 (Q68DX3 770-861): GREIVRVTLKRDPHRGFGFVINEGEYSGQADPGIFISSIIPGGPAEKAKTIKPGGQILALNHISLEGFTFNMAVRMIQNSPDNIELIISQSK
Sequence of NHERF4_2, Q86UT5 (Q86UT5 220-308): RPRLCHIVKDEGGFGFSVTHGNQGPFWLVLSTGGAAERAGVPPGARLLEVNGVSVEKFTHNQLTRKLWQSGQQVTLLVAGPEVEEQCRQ
Sequence of NHERF4_4, Q86UT5 (Q86UT5 464-550): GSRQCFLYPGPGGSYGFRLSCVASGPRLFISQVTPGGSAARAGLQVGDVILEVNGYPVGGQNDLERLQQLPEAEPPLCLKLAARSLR
Sequence of Inadl_3, Q8NI35 (Q8NI35 359-469): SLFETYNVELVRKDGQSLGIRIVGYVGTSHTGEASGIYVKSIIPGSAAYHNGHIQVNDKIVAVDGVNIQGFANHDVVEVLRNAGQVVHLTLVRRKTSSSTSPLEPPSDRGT
Sequence of LNX1_3, Q8TBB1 (Q8TBB1 500-596): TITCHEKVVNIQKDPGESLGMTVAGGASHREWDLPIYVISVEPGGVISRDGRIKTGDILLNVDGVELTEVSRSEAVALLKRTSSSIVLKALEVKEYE
Sequence of LAP2, Q96RT1 (Q96RT1 other isoform, or with tags, fused parts or gaps): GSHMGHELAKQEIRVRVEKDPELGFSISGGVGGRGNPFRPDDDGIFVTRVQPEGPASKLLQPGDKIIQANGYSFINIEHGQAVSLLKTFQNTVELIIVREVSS
Sequence of LIMK2, P53671 (P53671 143-248): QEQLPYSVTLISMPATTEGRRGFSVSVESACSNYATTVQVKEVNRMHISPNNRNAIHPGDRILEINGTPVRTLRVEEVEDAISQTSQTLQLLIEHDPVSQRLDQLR
Sequence of DLG4_2, P78352 (P78352 155-259): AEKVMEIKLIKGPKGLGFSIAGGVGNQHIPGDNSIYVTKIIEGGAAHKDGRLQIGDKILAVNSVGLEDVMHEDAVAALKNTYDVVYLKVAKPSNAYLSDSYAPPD

In the case of NQLAWFDTDL [CTNNB1, P35222], the pKd entry was “below the threshold” with APBA1_2, Q02410 (setting [1]); “below the threshold” with APBA2_2, Q99767 (setting [1]); “below the threshold” with CARD11, Q9BXL7 (setting [1]); “below the threshold” with DFNB31_2, Q9P202 (setting [1]); “below the threshold” in the test with DLG4_2, P78352 (setting [1]); “below the threshold” with FRMPD1, Q5SYB0 (setting [1]). Besides, the pKd entry in the test with FRMPD2_1, Q68DX3 (setting [1]) was “below the threshold”; in the test with IL16_1, Q14005 (setting [1]) it was “below the threshold”; with Inadl_3, Q8NI35 (setting [1]), 3.7; in the test with LAP2, Q96RT1 (setting [1]), 4.53; with LIMK2, P53671 (setting [1]) it was “below the threshold”; with LNX1_3, Q8TBB1 (setting [1]), “below the threshold”. For the same molecule, the pKd result with LNX2_3, Q8N448 (setting [1]) was “below the threshold”; with MPDZ_10, O75970 (setting [1]), “below the threshold”; with MPP6, Q9NZW5 (setting [1]), “below the threshold”; in the test with MPP7, Q5T2T1 (setting [1]) it was “below the threshold”; with NHERF3_3, Q5T2W1 (setting [1]) it was “below the threshold”; with NHERF3_4, Q5T2W1 (setting [1]) it was “below the threshold”. Also, the pKd entry with NHERF4_2, Q86UT5 (setting [1]) is “below the threshold”; in the test with NHERF4_4, Q86UT5 (setting [1]) it was 4.04; with PDZD2_2, O15018 (setting [1]), “below the threshold”; in the test with SHANK1, Q9Y566 (setting [1]), 4.1; with TX1BP3, O14907 (setting [1]) it was 5.99.
GIFPTLTSPL [SHROOM3, Q8TF72]: the pKd entry with APBA1_2, Q02410 (setting [2]) is recorded as “below the threshold”; with APBA2_2, Q99767 (setting [2]), “below the threshold”; in the test with CARD11, Q9BXL7 (setting [2]) it was “below the threshold”; with DFNB31_2, Q9P202 (setting [2]), “below the threshold”; in the test with DLG4_2, P78352 (setting [2]), “below the threshold”; with FRMPD1, Q5SYB0 (setting [2]), “below the threshold”. The pKd entry with FRMPD2_1, Q68DX3 (setting [2]) was “below the threshold”; with IL16_1, Q14005 (setting [2]) it was “below the threshold”; with Inadl_3, Q8NI35 (setting [2]) it was “below the threshold”; in the test with LAP2, Q96RT1 (setting [2]), “below the threshold”; with LIMK2, P53671 (setting [2]), “below the threshold”; with LNX1_3, Q8TBB1 (setting [2]), “below the threshold”. Moreover, the pKd entry was “below the threshold” in the test with LNX2_3, Q8N448 (setting [2]); 3.77 with MPDZ_10, O75970 (setting [2]); “below the threshold” with MPP6, Q9NZW5 (setting [2]); “below the threshold” with MPP7, Q5T2T1 (setting [2]); “below the threshold” with NHERF3_3, Q5T2W1 (setting [2]); 3.95 with NHERF3_4, Q5T2W1 (setting [2]). Besides, the pKd result is “below the threshold” in the test with NHERF4_2, Q86UT5 (setting [2]); “below the threshold” with NHERF4_4, Q86UT5 (setting [2]); 3.48 with PDZD2_2, O15018 (setting [2]); 4.8 with SHANK1, Q9Y566 (setting [2]); 3.65 with TX1BP3, O14907 (setting [2]).
Take GKKSVKHSKI [ACOT6, Q3I5F7]: the pKd result with APBA1_2, Q02410 (setting [3]) is “below the threshold”; with APBA2_2, Q99767 (setting [3]), “below the threshold”; with CARD11, Q9BXL7 (setting [3]) it was “below the threshold”; with DFNB31_2, Q9P202 (setting [3]), 3.81; with DLG4_2, P78352 (setting [3]) it was 3.88; with FRMPD1, Q5SYB0 (setting [3]) it was “below the threshold”. Moreover, the pKd entry with FRMPD2_1, Q68DX3 (setting [3]) was “below the threshold”; with IL16_1, Q14005 (setting [3]), “below the threshold”; with Inadl_3, Q8NI35 (setting [3]), “below the threshold”; with LAP2, Q96RT1 (setting [3]) it was “below the threshold”; with LIMK2, P53671 (setting [3]) it was “below the threshold”; with LNX1_3, Q8TBB1 (setting [3]), “below the threshold”. In addition, the pKd entry with LNX2_3, Q8N448 (setting [3]) is “below the threshold”; in the test with MPDZ_10, O75970 (setting [3]), “below the threshold”; with MPP6, Q9NZW5 (setting [3]) it was 3.5; with MPP7, Q5T2T1 (setting [3]), “below the threshold”; with NHERF3_3, Q5T2W1 (setting [3]), “below the threshold”; in the test with NHERF3_4, Q5T2W1 (setting [3]), “below the threshold”. Further, the pKd entry in the test with NHERF4_2, Q86UT5 (setting [3]) was “below the threshold”; with NHERF4_4, Q86UT5 (setting [3]) it was 3.76; in the test with PDZD2_2, O15018 (setting [3]) it was 4.03; with SHANK1, Q9Y566 (setting [3]), “below the threshold”; with TX1BP3, O14907 (setting [3]), “below the threshold”.

Values taken from article PMC9482650, “Quantitative fragmentomics allow affinity mapping of interactomes” (Nature Communications, 2022).
